Assay [1] concerns the target T1, urokinase receptor on MCF-7 human breast cancer cells (human, UniProt Q03405 23-305).
T1 construct: whole, on cells; also called uPA receptor; urokinase receptors
The experiment in a line: immunocytochemistry of MCF-7 cells with anti-L-methioninase antibody, 18 h treatment.

Assay [2] concerns the target T1, urokinase receptor on MCF-7 human …. The experiment in a line: displacement assay on MCF-7 cells (summary of Example 1).

The record followed here is patent US20070207158A1 (BOARD OF REGENTS OF THE UNIVERSITY OF OKLAHOMA, published 2007).

T1 sequence (Q03405 23-305): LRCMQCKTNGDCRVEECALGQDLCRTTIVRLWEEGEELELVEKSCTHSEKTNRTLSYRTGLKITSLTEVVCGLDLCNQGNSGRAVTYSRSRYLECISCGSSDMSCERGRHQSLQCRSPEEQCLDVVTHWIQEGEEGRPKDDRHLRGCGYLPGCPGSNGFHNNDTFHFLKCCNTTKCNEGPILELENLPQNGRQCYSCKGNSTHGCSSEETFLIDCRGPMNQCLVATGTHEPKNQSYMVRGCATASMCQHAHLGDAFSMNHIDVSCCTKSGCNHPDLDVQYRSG

B1: L-methioninase from Pseudomonas putida (enzyme)
chain: MRDSHNNTGFSTRAIHHGYDPLSHGGALVPPVYQTATYAFPTVEYGAACFAGEEAGHFYSRISNPTLALLEQRMASLEGGEAGLALASGMGAITSTLWTLLRPGDELIVGRTLYGCTFAFLHHGIGEFGVKIHHVDLNDAKALKAAINSKTRMIYFETPANPNMQLVDIAAVVEAVRGSDVLVVVDNTYCTPYLQRPLELGADLVVHSATKYLSGHGDITAGLVVGRKALVDRIRLEGLKDMTGAALSPHDAALLMRGIKTLALRMDRHCANALEVAQFLAGQPQVELIHYPGLPSFAQYELAQRQMRLPGGMIAFELKGGIEAGRGFMNALQLFARAVSLGDAESLAQHPASMTHSSYTPQERAHHGISEGLVRLSVGLEDVEDLLADIELALEACA
notes: also called free L-methioninase
Consider B1, for which the binding result in assay [1] is given as “no binding (tested: 10^-6 M)”.

B2: ATF-methioninase fusion protein (other)
chain: SNELHQVPSNCDCLNGGTCVSNKYFSNIHWCNCPKKFGGQHCEIDKSKTGSGSGSRDSHNNTGFSTRAIHHGYDPLSHGGALVPPVYQTATYAFPTVEYGAACFAGEEAGHFYSRISNPTLALLEQRMASLEGGEAGLALASGMGAITSTLWTLLRPGDELIVGRTLYGCTFAFLHHGIGEFGVKIHHVDLNDAKALKAAINSKTRMIYFETPANPNMQLVDIAAVVEAVRGSDVLVVVDNTYCTPYLQRPLELGADLVVHSATKYLSGHGDITAGLVVGRKALVDRIRLEGLKDMTGAALSPHDAALLMRGIKTLALRMDRHCANALEVAQFLAGQPQVELIHYPGLPSFAQYELAQRQMRLPGGMIAFELKGGIEAGRGFMNALQLFARAVSLGDAESLAQHPASMTHSSYTPQERAHHGISEGLVRLSVGLEDVEDLLADIELALEACA
notes: also called FP
As to B2, the binding result in assay [2] was “binds”.
